# Test results reported in patent publication US20230227548A1 (published 2023).
# T1: cyno GPRC5D (cyno, UniProt Q9NZD1 1-343 (human entry))
# T1 construct: on transfected HEK293F or Daudi cells; also called cynomolgus monkey GPRC5D
# T1 chain: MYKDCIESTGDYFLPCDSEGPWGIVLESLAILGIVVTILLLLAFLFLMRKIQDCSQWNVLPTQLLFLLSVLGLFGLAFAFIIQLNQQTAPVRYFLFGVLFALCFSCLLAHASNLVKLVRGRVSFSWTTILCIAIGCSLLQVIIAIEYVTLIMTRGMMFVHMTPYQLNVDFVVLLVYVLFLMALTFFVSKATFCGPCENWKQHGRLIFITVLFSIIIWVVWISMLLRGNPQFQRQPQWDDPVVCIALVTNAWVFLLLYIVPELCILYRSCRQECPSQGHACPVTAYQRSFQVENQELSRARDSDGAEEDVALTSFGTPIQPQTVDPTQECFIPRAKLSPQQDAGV
# Legend:
# [1] = target: T1, cyno GPRC5D; assay: FACS, cyno GPRC5D cells, 1 ug/ml
# [2] = target: T2, human GPRC5D (human, UniProt Q9NZD1 1-345); assay: FACS, human GPRC5D cells
# T2 construct: on transfected HEK293 or RBL cells, or endogenous on MM1R, H929, OPM2, LP-1, JIM3 and patient plasma cells; also called G-protein coupled receptor family C group 5 member D; hGPRC5D
# [3] = target: T2, human GPRC5D; assay: cell-based or functional assay
# [4] = target: T2, human GPRC5D; assay: cell-based or functional assay; remark: listed apart in the source
# [5] = target: T2, human GPRC5D; assay: cell-based or functional assay; remark: listed apart in the source
# [6] = target: T2, human GPRC5D; assay: FACS, MM patient MM303BM bone marrow MNCs (plasma cells)
# [7] = target: T2, human GPRC5D; assay: FACS, MM patient MM305BM bone marrow MNCs (plasma cells)
# [8] = target: T1, cyno GPRC5D; assay: cell-based or functional assay
# [9] = target: T1, cyno GPRC5D; assay: cell-based or functional assay
# T2 sequence (Q9NZD1 whole entry): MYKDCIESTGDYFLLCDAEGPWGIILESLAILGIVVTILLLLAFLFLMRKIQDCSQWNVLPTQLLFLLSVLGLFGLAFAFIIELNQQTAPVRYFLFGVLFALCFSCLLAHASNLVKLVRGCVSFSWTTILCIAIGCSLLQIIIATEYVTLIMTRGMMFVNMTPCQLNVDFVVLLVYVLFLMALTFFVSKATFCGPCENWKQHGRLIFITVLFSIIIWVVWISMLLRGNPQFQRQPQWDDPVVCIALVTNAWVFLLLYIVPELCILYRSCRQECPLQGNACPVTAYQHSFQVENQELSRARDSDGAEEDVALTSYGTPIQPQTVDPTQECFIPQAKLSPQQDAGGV
EC50 [6],EC50 [7],Binder,"T-cell redirection cytotoxicity EC50, human GPRC5D HEK cells [4]","T-cell mediated cytotoxicity EC50, H929 cells [5]","T-cell mediated cytotoxicity EC50, LP-1 [5]","T-cell mediated cytotoxicity EC50, MM1R [5]","T-cell mediated cytotoxicity EC50, OPM2 [5]","T-cell redirection cytotoxicity EC50, cyno GPRC5D HEK cells [9]",further results
,,"GC5B252 (antibody, V domains shown) VH: QVQLVQSGAEVKKPGSSVKVSCKASGGTFSSYGISWVRQAPGQGLEWMGGIIPIFGNINYAQKFQGRVTITADESTSTAYMELSSLRSEDTAVYYCARVSRRFKRFAYYFDYWGQGTLVTVSS VL: EIVLTQSPATLSLSPGERATLSCRASQSVSSYLAWYQQKPGQAPRLLIYDASNRATGIPARFSGSGSGTDFTLTISSLEPEDFAVYYCQQRSNWPLTFGQGTKVEIK",,,,,,,MFI [1]: 63300
,,"GC5B163 (antibody, V domains shown) VH: EVQLVQSGAEVKKPGESLKISCKGSGYSFTSYWIGWVRQMPGKGLEWMGIIYPGDSDTRYSPSFQGQVTISADKSISTAYLQWSSLKASDTAMYYCARVYSFGGRHKALFDYWGQGTLVTVSS VL: not shown",,,,,,,MFI [1]: 22000
,,"GC5B540 (antibody, V domains shown, HFA of GC5B396: GC5H240 + GC5L58; IgG4) VH: QVTLKESGPVLVKPTETLTLTCTVSGFSLTSYNVHWIRQPPGKALEWLAVIWAGGSTNYNSALMSRLTISKDTSKSQVVLTMTNMRAEDTATYYCARDGIRLRFAYWGQGTLVTVSS VL: EIVMTQSPATLSVSPGERATLSCKASQNVATHVGWYQQKPGQAPRLLIYSASYRYSGIPARFSGSGSGTEFTLTISSLQSEDFAVYYCQQYNRYPYTFGQGTKLEIK",,,,,,,binding result [2]: binds
16.1 nM,70.4 nM,"GCDB32 (bispecific antibody, IgG4, V domains shown, IgG4-PAA by Fab arm exchange; first VH/VL = CD3B219 arm (IgG4 S228P, L234A, L235A, F405L, R409K); also called GC5B81 x CD3B219) VH 1: EVQLVESGGGLVQPGGSLRLSCAASGFTFNTYAMNWVRQAPGKGLEWVARIRSKYNNYATYYAASVKGRFTISRDDSKNSLYLQMNSLKTEDTAVYYCARHGNFGNSYVSWFAYWGQGTLVTVSS VL 1: QTVVTQEPSLTVSPGGTVTLTCRSSTGAVTTSNYANWVQQKPGQAPRGLIGGTNKRAPGTPARFSGSLLGGKAALTLSGVQPEDEAEYYCALWYSNLWVFGGGTKLTVL VH 2: not shown VL 2: not shown",0.04 nM,0.45 nM,1.02 nM,0.04 nM,0.98 nM,,"T-cell mediated cytotoxicity EC50, H929 (n = 5) [3]: 0.39 nM; T-cell mediated cytotoxicity EC50, MM1R (n = 3) [3]: 0.12 nM"
,,"GCDB45 (bispecific antibody, V domains shown) VH 1: EVQLVESGGGLVQPGGSLRLSCAASGFTFNTYAMNWVRQAPGKGLEWVARIRSKYNNYATYYAASVKGRFTISRDDSKNSLYLQMNSLKTEDTAVYYCARHGNFGNSYVSWFAYWGQGTLVTVSS VL 1: QTVVTQEPSLTVSPGGTVTLTCRSSTGAVTTSNYANWVQQKPGQAPRGLIGGTNKRAPGTPARFSGSLLGGKAALTLSGVQPEDEAEYYCALWYSNLWVFGGGTKLTVL VH 2: EVQLVQSGAEVKKPGESLKISCKGSGYSFTSYWIGWVRQMPGKGLEWMGIIYPGDSDTRYSPSFQGQVTISADKSISTAYLQWSSLKASDTAMYYCARIGFYGRSFRIFDYWGQGTLVTVSS VL 2: EIVLTQSPATLSLSPGERATLSCRASQSVSSYLAWYQQKPGQAPRLLIYDASNRATGIPARFSGSGSGTDFTLTISSLEPEDFAVYYCQQRSNWPLTFGQGTKVEIK",,,,,,,"T-cell mediated cytotoxicity EC50, H929 (n = 5) [3]: 2.25 nM; T-cell mediated cytotoxicity EC50, MM1R (n = 3) [3]: 0.91 nM; T cell mediated target cell killing, Cyno GPRC5D EC50 [8]: 2.82 nM"
,,"GCDB72 (bispecific antibody, IgG4, V domains shown) VH 1: EVQLVESGGGLVQPGGSLRLSCAASGFTFNTYAMNWVRQAPGKGLEWVARIRSKYNNYATYYAASVKGRFTISRDDSKNSLYLQMNSLKTEDTAVYYCARHGNFGNSYVSWFAYWGQGTLVTVSS VL 1: QTVVTQEPSLTVSPGGTVTLTCRSSTGAVTTSNYANWVQQKPGQAPRGLIGGTNKRAPGTPARFSGSLLGGKAALTLSGVQPEDEAEYYCALWYSNLWVFGGGTKLTVL VH 2: QVQLVQSGAEVKKPGASVKVSCKASGYSFTGYTMNWVRQAPGQGLEWMGLINPYNSDTNYAQKLQGRVTMTTDTSTSTAYMELRSLRSDDTAVYYCARVALRVALDYWGQGTLVTVSS VL 2: DIQMTQSPSSLSASVGDRVTITCKASQNVATHVGWYQQKPGKAPKRLIYSASYRYSGVPSRFSGSGSGTEFTLTISNLQPEDFATYYCQQYNRYPYTFGQGTKLEIK",,,,,,3.41 nM,
5.53 nM,6.93 nM,"GCDB61 (bispecific antibody, IgG4, V domains shown, IgG4-PAA; first VH/VL = CD3B219 arm (adds F405L, R409K), second = GC5B483 arm; also called GC5B483 x CD3B219) VH 1: EVQLVESGGGLVQPGGSLRLSCAASGFTFNTYAMNWVRQAPGKGLEWVARIRSKYNNYATYYAASVKGRFTISRDDSKNSLYLQMNSLKTEDTAVYYCARHGNFGNSYVSWFAYWGQGTLVTVSS VL 1: QTVVTQEPSLTVSPGGTVTLTCRSSTGAVTTSNYANWVQQKPGQAPRGLIGGTNKRAPGTPARFSGSLLGGKAALTLSGVQPEDEAEYYCALWYSNLWVFGGGTKLTVL VH 2: EVQLVQSGAEVKKPGESLKISCKGSGYSFTSYFIGWVRQMPGKGLEWMGIIYPGKSDTRYSPSFQGQVTISADKSISTAYLQWSSLKASDTAMYYCARVYSFGGRHKALFDYWGQGTLVTVSS VL 2: EIVLTQSPATLSLSPGERATLSCRASQSVSSYLAWYQQKPGQAPRLLIYDASNRATGIPARFSGSGSGTDFTLTISSLEPEDFAVYYCQQRSNWPLTFGQGTKVEIK",0.03 nM,0.39 nM,1.67 nM,0.06 nM,1.46 nM,1.22 nM,
3.98 nM,10.2 nM,"GCDB53 (bispecific antibody, IgG4, V domains shown, IgG4-PAA; first VH/VL = CD3B219 arm (adds F405L, R409K), second = GC5B465 arm; also called GC5B465 x CD3B219) VH 1: EVQLVESGGGLVQPGGSLRLSCAASGFTFNTYAMNWVRQAPGKGLEWVARIRSKYNNYATYYAASVKGRFTISRDDSKNSLYLQMNSLKTEDTAVYYCARHGNFGNSYVSWFAYWGQGTLVTVSS VL 1: QTVVTQEPSLTVSPGGTVTLTCRSSTGAVTTSNYANWVQQKPGQAPRGLIGGTNKRAPGTPARFSGSLLGGKAALTLSGVQPEDEAEYYCALWYSNLWVFGGGTKLTVL VH 2: not shown VL 2: not shown",0.08 nM,0.69 nM,1.58 nM,0.28 nM,2.83 nM,0.36 nM,
